From US20240383982A1 (Genmab, published 2024)
One block for each binder: values may come before it.

Assays:
[1] = biological target: T1, rat (Rattus norvegicus) B7H4, full length, on HEK-293F cells (rat, UniProt Q501W4 25-257); assay: flow cytometry, HEK-293F cells transfected with rat B7H4 [panel Rat B7H4]
T1 construct: Uniprot Q501W4; also called rat B7H4
T1 sequence: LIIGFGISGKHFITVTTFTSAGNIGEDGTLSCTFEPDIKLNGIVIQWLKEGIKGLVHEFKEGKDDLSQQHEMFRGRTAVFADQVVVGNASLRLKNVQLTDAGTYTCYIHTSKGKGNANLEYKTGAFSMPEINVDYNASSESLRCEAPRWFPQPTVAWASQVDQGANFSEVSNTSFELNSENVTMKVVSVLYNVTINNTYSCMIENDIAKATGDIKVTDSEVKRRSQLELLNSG
Method: (§1) Cells (3×10⁴ cells/well) were incubated in polystyrene 96-well round-bottom plates (Greiner bio-one, cat. no. 650180) with serial dilutions of antibodies (ranging from 0.000458 to 30 μg/mL in 4-fold dilution steps) in 100 μL PBS/0.1% BSA/0.02% azide (staining buffer) at 4° C. for 30 min. Experiments were performed in technical duplicate. After washing twice in staining buffer, cells were incubated in 50 μL secondary antibody at 4° C. for 30 min. As a secondary antibody, R-Phycoerythrin (PE)-conjugated goat-anti-human IgG F(ab′)₂ (1:500 in FACS buffer; Jackson ImmunoResearch Laboratories, Inc., West Grove, PA, cat. no. 109-116-098), was used. Cells were washed twice in staining buffer, re-suspended in 30 μL FACS buffer containing Topro-3 (1:10,000 dilution) and analyzed on an iQue Screener (Intellicyt Corporation, USA). Binding curves were analyzed using non-linear regression (sigmoidal dose-response with variable slope) using GraphPad Prism V7.02 software (GraphPad Software, San Diego, CA, USA).

[2] = biological target: T2, dog (Canis familiaris) B7H4, full length, on HEK-293F cells (dog, UniProt Q7Z7D3 25-282 (human entry)); assay: flow cytometry, transiently transfected HEK-293F cells
T2 construct: Uniprot F1P8R9; also called dog B7H4
T2 chain: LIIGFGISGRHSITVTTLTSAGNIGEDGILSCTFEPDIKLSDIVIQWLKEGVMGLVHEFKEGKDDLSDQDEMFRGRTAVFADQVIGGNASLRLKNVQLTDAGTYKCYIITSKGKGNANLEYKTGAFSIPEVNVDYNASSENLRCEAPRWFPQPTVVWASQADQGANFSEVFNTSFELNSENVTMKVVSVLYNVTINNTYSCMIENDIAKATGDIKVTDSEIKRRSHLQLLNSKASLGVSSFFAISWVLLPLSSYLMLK

[3] = biological target: T3, rabbit (Oryctolagus cuniculus) B7H4, full length, on HEK-293F cells (rabbit, UniProt Q7Z7D3 25-282 (human entry)); assay: as above
T3 construct: Uniprot G1TQE8; also called rabbit B7H4
T3 chain: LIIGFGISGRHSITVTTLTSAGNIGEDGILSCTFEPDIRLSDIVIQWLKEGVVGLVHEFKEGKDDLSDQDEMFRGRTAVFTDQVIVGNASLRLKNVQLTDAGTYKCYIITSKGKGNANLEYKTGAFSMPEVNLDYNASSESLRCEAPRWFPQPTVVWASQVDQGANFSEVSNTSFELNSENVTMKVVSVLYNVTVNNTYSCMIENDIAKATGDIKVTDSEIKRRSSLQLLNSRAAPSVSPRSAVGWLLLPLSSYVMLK

[4] = biological target: T2, dog (Canis familiaris) B7H4, full …; assay: flow cytometry, HEK-293F cells transiently transfected with dog B7H4, PE anti-human IgG F(ab')2 [panel Dog B7H4]
Method: as §1

[5] = biological target: T4, human B7H4, full length, on cells (human, UniProt Q7Z7D3 25-282); assay: flow cytometry on MDA-MB-468 tumor cells [panel MDA-MB-468]
T4 construct: Uniprot Q7Z7D3; Used for transfected HEK cells and for the B7H4-expressing human tumor cell lines (endogenous B7H4); also called VTCN1
T4 sequence: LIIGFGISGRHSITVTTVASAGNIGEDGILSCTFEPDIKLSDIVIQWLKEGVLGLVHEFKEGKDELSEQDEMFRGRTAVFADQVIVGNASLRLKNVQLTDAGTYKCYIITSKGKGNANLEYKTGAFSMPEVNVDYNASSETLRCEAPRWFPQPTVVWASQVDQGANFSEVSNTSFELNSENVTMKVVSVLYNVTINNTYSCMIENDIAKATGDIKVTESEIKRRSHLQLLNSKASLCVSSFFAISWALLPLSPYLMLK
Method: as §1
(§2) Binding was analyzed by flow cytometry as described above.

[6] = biological target: T4, human B7H4, full length, on cells; assay: flow cytometry on HCC1954 tumor cells [panel HCC1954 cells]
Method: as §1, §2

B7H3-IgV/B7H4-IgC = biological target: T5, B7H3-IgV/B7H4-IgC; assay: flow cytometry, HEK cells transiently transfected with B7H3-IgV/B7H4-IgC, PE anti-human IgG F(ab')2 [panel B7H3-IgV/B7H4-IgC]
T5 construct: also called chimeric molecule with the IgV domain of B7H3 and the IgC domain of B7H4
T5 full-length chimeric protein on cells: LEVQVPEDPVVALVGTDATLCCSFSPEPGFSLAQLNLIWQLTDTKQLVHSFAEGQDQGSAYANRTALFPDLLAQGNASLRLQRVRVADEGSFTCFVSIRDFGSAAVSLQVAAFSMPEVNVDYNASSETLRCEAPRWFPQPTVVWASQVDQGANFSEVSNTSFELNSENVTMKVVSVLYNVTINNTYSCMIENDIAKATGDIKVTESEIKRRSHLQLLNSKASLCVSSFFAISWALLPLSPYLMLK

binding result [1]: binds
binding result [2]: binds
binding result [3]: binds
B1: IgG1-B7H4-C5-FEAR (antibody, V domains shown)
VH: QLQLQESGPGLVKPSETLSLTCTVSGGSIKSGSYYWGWIRQPPGKGLEWIGNIYYSGSTYYNPSLRSRVTISVDTSKNQFSLKLSSVTAADTAVYYCAREGSYPNQFDPWGQGTLVTVSS
VL: EIVMTQSPATLSVSPGERATLSCRASQSVSSNLAWYQQKPGQAPRLLIYGASTRATGIPARFSGSGSGTEFTLTISSLQSEDFAVYYCQQYHSFPFTFGGGTKVEIKR
notes: Full length IgG1 FEAR, kappa; variable domains from US20190085080A1

EC50 (read off the curve) [4]: ~0.3 µg/mL
EC50 (read off the curve) [5]: ~1 µg/mL
B2: IgG1-B7H4-C1-N52S-FEAR (antibody, V domains shown)
VH: QVQLQQWGAGLLKPSETLSLTCAVYGGSFSGYYWSWIRQPPGKGLEWIGEISHSGSTNYNPSLKSRVTISIDTSKNQFSLKLTSVTAADTAVFYCARGLFNWNFDSWGQGTLVTVSS
VL: DIQMTQSPSSLSASVGDRVTITCRASQGIRNDLGWYQQKPGKAPKRLIYGASSLQSGVPSRFSGSGSGTEFTLTISSLQPEDFATYYCLQHNSYPRTFGQGTTVEIKR
notes: Full length human IgG1 with L234F, L235E, D265A, K409R (FEAR) heavy chain constant region and kappa light chain; bivalent, monospecific; also called IgG1-B7H4-C1-052S-FEAR

B3: bsIgG1-huCD3-H101G-FEALxB7H4-C1-N52S-FEAR (bispecific antibody)
heavy 1: not shown
light 1: not shown
heavy 2: QVQLQQWGAGLLKPSETLSLTCAVYGGSFSGYYWSWIRQPPGKGLEWIGEISHSGSTNYNPSLKSRVTISIDTSKNQFSLKLTSVTAADTAVFYCARGLFNWNFDSWGQGTLVTVSSASTKGPSVFPLAPSSKSTSGGTAALGCLVKDYFPEPVTVSWNSGALTSGVHTFPAVLQSSGLYSLSSVVTVPSSSLGTQTYICNVNHKPSNTKVDKRVEPKSCDKTHTCPPCPAPEFEGGPSVFLFPPKPKDTLMISRTPEVTCVVVAVSHEDPEVKFNWYVDGVEVHNAKTKPREEQYNSTYRVVSVLTVLHQDWLNGKEYKCKVSNKALPAPIEKTISKAKGQPREPQVYTLPPSREEMTKNQVSLTCLVKGFYPSDIAVEWESNGQPENNYKTTPPVLDSDGSFFLYSRLTVDKSRWQQGNVFSCSVMHEALHNHYTQKSLSLSPGK
light 2: DIQMTQSPSSLSASVGDRVTITCRASQGIRNDLGWYQQKPGKAPKRLIYGASSLQSGVPSRFSGSGSGTEFTLTISSLQPEDFATYYCLQHNSYPRTFGQGTTVEIKRTVAAPSVFIFPPSDEQLKSGTASVVCLLNNFYPREAKVQWKVDNALQSGNSQESVTEQDSKDSTYSLSSTLTLSKADYEKHKVYACEVTHQGLSSPVTKSFNRGEC
notes: also called bslgG1-huCD3-H101G-FEALxB7H4-C1-N52S-FEAR; BslgG1-huCD3-H101G-FEALxB7H4-C1-N52S-FEAR
EC50 (read off the curve) [6]: ~3 µg/mL
binding result (B7H3-IgV/B7H4-IgC): binds
binding result [4]: binds
